Values of other authors as cited in article PMC3334866.
pKd: −log10 of the molar value.

Molecular target: Vinculin D1 (UniProt P18206)
Chain of UniProt P18206 (P18206 1-258): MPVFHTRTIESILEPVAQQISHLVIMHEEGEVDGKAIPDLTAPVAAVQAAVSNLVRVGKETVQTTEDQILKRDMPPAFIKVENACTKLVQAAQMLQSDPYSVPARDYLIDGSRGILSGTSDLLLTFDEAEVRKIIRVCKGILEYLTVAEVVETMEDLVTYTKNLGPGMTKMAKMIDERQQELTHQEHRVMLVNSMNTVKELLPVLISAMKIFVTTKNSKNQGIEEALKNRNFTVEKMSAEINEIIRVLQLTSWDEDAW

In the case of IpaA peptide (from UniProt P18010), the pKd is given as over 9.00.
